One assay concerns the target CXCL10_HUMAN (human) (UniProt P02778). Description: yeast surface display FACS re-test.
CXCL12_HUMAN (human), sequence (P48061 22-89 limits assumed): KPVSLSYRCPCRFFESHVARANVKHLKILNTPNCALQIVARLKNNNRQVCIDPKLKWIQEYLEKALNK
CXCL10_HUMAN (human), sequence (P02778 22-98 limits assumed): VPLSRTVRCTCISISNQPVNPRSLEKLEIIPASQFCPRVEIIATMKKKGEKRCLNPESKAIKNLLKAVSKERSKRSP
With “P1096_IXORI (from UniProt A0A0K8RKE4 24-114)”, the % cells over threshold fluorescence came out at 50%.

Consider “P1134_IXORI (from UniProt A0A0K8RAI0 32-135)”, for which the % cells over threshold fluorescence was 66%.

Another assay concerns the target CXCL12_HUMAN (human) (UniProt P48061). Put plainly: yeast surface display FACS re-test.
In turn, “P1080_IXORI (from UniProt A0A090XBL6 20-118)” showed a % cells over threshold fluorescence of 53%.

For the substance “P1095_IXORI (from UniProt A0A0K8RCE3 24-112)”, the % cells over threshold fluorescence is 47%.

The target of another assay is CXCL9_HUMAN (human) (UniProt Q07325). Put plainly: yeast surface display FACS re-test.
CXCL9_HUMAN (human), sequence (Q07325 23-125 limits assumed): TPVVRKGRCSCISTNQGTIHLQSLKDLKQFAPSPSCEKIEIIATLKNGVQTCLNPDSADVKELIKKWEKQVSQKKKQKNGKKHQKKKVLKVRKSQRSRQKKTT
Take “P458_IXORI (from UniProt A0A0K8R7D4 25-90)”: the % cells over threshold fluorescence stood at 37%. With “P1074_IXORI (from UniProt A0A0K8RDH6 29-96)”, the % cells over threshold fluorescence was determined as 35%. Still for that read-out and setting: in the case of “P1080_IXORI (from UniProt A0A090XBL6 20-118)” it was 49%; in that of “P1086_IXORI (from UniProt A0A0K8RK34 29-94)”, 54%; in that of “P1100_IXORI (from UniProt A0A0K8R556 29-96)”, 55%. Still for that read-out and setting: the same measure for “P1124_IXORI (from UniProt A0A0K8RG61 29-83)”: 31%.

Values taken from patent US20240034757A1.
